T1: cynomolgus Trop-2-His protein (cynomolgus, UniProt P09758 27-274 (human entry))
T1 construct: also called cynmolgus Trop-His; Kactus Cat #TRP-CM121; not shown: His tag
T1 chain: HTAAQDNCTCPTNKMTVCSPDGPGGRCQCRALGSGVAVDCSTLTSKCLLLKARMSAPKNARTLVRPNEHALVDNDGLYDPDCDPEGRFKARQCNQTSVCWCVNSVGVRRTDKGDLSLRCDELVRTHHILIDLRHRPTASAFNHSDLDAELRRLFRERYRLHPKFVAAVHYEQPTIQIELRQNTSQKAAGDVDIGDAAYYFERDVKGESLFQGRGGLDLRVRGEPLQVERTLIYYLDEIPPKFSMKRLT

T2: human Trop-2-His protein (human, UniProt P09758 27-274)
T2 construct: extracellular domain; Assay paragraphs say only 'Trop-2-His'; also called hTrop-2; Kactus Cat #TRP-HM121; not shown: His tag
T2 sequence (looked up): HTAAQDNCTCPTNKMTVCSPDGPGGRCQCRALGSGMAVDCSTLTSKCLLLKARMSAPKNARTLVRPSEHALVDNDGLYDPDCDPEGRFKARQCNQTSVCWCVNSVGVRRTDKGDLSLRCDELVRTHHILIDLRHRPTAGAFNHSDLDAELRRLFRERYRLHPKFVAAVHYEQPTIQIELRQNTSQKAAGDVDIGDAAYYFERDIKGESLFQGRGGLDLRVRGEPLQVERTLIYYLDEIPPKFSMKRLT


What was measured:
[1] = target: T1, cynomolgus Trop-2-His protein; assay: BLI (Gator Prime), LEM supernatant Ab on HFC probe
Description: (§1) After three times of regeneration and neutralization of HFC probe (Gator, Cat #160003), LEM transfection supernatant samples to be tested in K buffer was diluted 1:1 in K buffer and immobilized onto HFC probe. […] The association and dissociation of human or cynomolgus Trop-2-His antigen from antibody was measured on BLI machine Gator Prime. Affinity was calculated using Gator Bio analysis software. Blank control was used for reference subtraction. 1 μg/ml of Sacituzumab govitecan was used as positive control.
(§2) Table 23 below summarizes the binding affinity of exemplary anti-Trop-2 antibodies in LEM transfection supernatant samples to human and cynomolgus Trop-2 using Gator.

human Trop-2-His protein = target: T2, human Trop-2-His protein; assay: BLI (Gator Prime), LEM supernatant Ab on HFC probe
Description: as §1, §2

Kd [1]	koff [1]	kon [1]	Kd (human Trop-2-His protein)	koff (human Trop-2-His protein)	kon (human Trop-2-His protein)	Binder
0.911 nM	0.00047 s⁻¹	603000 M⁻¹ s⁻¹	1.22 nM	0.00047 s⁻¹	386000 M⁻¹ s⁻¹	12G6 (antibody, V domains shown, Rabbit-derived clone; LEM construct: VH + rabbit IgG CH1 + human IgG1 CH2-CH3) VH: QEQLKESGGGLVQPGGSLTLSCKASGFDFNNYGVSWVRQAPGKGLEWIGYIYPAYHNTYYATWVNGRFTISSHNAQNTLYLQLNTLTAADTATYFCARDAGNTDYNFNLWGPGTLVTVSS VL: DVVMTQTPASVEVAVGGTVTIKCQASEDIESYLAWYQQKPGQPPKLLIYEASKLASGVSSRFSGGGYGTEFTLTISGVECADAATYYCQQALTIGNVDNPFGGGSEVVVK
1.17 nM	0.00069 s⁻¹	729000 M⁻¹ s⁻¹	1.38 nM	0.00069 s⁻¹	500000 M⁻¹ s⁻¹	3A4 (antibody, V domains shown, Rabbit-derived clone; LEM construct: VH + rabbit IgG CH1 + human IgG1 CH2-CH3) VH: QEQLVESGGGLVQPGGSLTLSCKGSGFDFNEYGVSWVRQAPGKGLEWIAYIYPAFHNTYYATWVNGRFTISSHNAQNTLYLQLHTLTAADTATYFCARDAGTTDYNFNLWGPGTLVTVSS VL: DVVMTQTPASVSAAVGGTVSINCQASEDIENYLAWYQQKPGQPPKLLIYEASKLASGVSSRFSGSGYGTEFTLTISGVECADAATYYCQQALTIGNVDNPFGGGSEVVVK
0.538 nM	0.00038 s⁻¹	888000 M⁻¹ s⁻¹	0.675 nM	0.00038 s⁻¹	568000 M⁻¹ s⁻¹	3E9 (antibody, V domains shown, Rabbit-derived clone; LEM construct: VH + rabbit IgG CH1 + human IgG1 CH2-CH3) VH: QEQLKESGGGLVQPGGSLKLSCKASGFDFNNYGVSWVRQAPGKGLEWIAYIYPAFHNRYYANWVNGRFTISSDNAQNTVYLQLNSLTAADTATYFCARDAGSTDYKFNLWGPGTLVTVSS VL: DVVMTQTPASVSAAVGGTVTIKCQASEDIESYLAWYQQKPGQPPKLLIYDASTLASGVSSRFSGSGYGTEFTLTISGVECADAATYYCQQDLTVGNVDNPFGGGSEVVVE
0.893 nM	0.00053 s⁻¹	592000 M⁻¹ s⁻¹	0.989 nM	0.00046 s⁻¹	465000 M⁻¹ s⁻¹	69H10 (antibody, V domains shown, Rabbit-derived clone; LEM construct: VH + rabbit IgG CH1 + human IgG1 CH2-CH3) VH: QEQLKESGGGLVQPGGSLKLSCKASGFDFNKYGVSWVRQAPGKGLEWIAYIYPAFHNTYYATWVNGRFTISSHNAQNTLYLQLNTLTAADTATYFCARDAGTTDYNFNLWGPGTLVTVSS VL: DVVMTQTASPVSAAVGGTVTIKCQASQSIYSYLSWYQQKPGQPPKLLIYEASKLASGVSSRFSGSGYGTEFTLTISGVECADAATYYCQQALTVGNVDNPFGGGSEVVVK
0.698 nM	0.00041 s⁻¹	919000 M⁻¹ s⁻¹	0.767 nM	0.00041 s⁻¹	529000 M⁻¹ s⁻¹	9A5 (antibody, V domains shown, Rabbit-derived clone; LEM construct: VH + rabbit IgG CH1 + human IgG1 CH2-CH3) VH: QEQLKESGGGLVQPGGSLTLSCKASGFDFNNYGVSWVRQAPGKGLEWIAYIYPTYHNTYYATWVNGRFTISSHNAQNTLYLQLNTLTAADTATYFCARDAGGTDYNFNLWGPGTLVTVSS VL: DVVMTQTPASVEAAVGGTVTINCQASQSIESYLAWYQQKPGQPPKLLIYEASKLASGVSSRFSGGGYGTEFTLTISGVECADAATYYCQQALTIGNVDNPFGGGSEVVVK
0.113 nM	0.00013 s⁻¹	727000 M⁻¹ s⁻¹	0.269 nM	0.00013 s⁻¹	488000 M⁻¹ s⁻¹	2H3 (antibody, V domains shown, Rabbit-derived clone; LEM construct: VH + rabbit IgG CH1 + human IgG1 CH2-CH3) VH: QEQLKESGGGLGQPGGSLTLSCKASGFDFNNYGVSWVRQAPGKGLEWIGYIYPAYHNTYYATWVNGRFTISSHNAQNTLYLQLNTLTAADTATYFCARDTGTTDYNFNLWGPGTLVTVSS VL: DVVMTQTPASVEVAVGGTVTIKCQASEDIESYLAWYQQKPGQPPKLLIYEASKLASGVSSRFSGGGYGTEFTLTISGVECADAATYYCQQALTVGNVDNPFGGGSEVVVK
0.582 nM	0.00027 s⁻¹	460000 M⁻¹ s⁻¹	0.822 nM	0.00027 s⁻¹	331000 M⁻¹ s⁻¹	2H5 (antibody, V domains shown, Rabbit-derived clone; LEM construct: VH + rabbit IgG CH1 + human IgG1 CH2-CH3) VH: QSLEESGGDLVQPGASLTLTCKASGFDLNNYSILWVRQAPGKGLEWIGCIYFSGGSTYYANWAKGRFAISKTSSTTVTLQMTSLTAADTATYFCARDDGTTSYYLNLWGPGTLVTVSS VL: YDMTQTPASVSEPVGGTVTIKCQASEDIYNLLAWYQQKPGQPPKLLIYAASDLESGVPSRFKGSGSGTEYTLTISDLECADAATYYCQQAYTVGNIDNAFGGGTEVVVK
0.168 nM	6.8e-05 s⁻¹	605000 M⁻¹ s⁻¹	0.173 nM	6.8e-05 s⁻¹	391000 M⁻¹ s⁻¹	10E12 (antibody, V domains shown, Rabbit-derived clone; LEM construct: VH + rabbit IgG CH1 + human IgG1 CH2-CH3) VH: QSLEESGGDLVQPGASLTLTCKASGFDLNNYAMLWVRQAPGKGLEWIGCIYISGGTTYFASWATGRFAISKTSSTTVTLQMTSLTAADTATYFCARDDGTTSYYLNLWGPGTLVTVSS VL: YDMTQTPASVSAAVGGTVTIKCQASEDIYSLLAWYQQKPGQPPKLLIYDASDLASGVPSRFKGSGSGTEYTLTISDLECDDAATYYCQQAYTIGNIDNAFGGGTEVVVK
0.455 nM	0.00019 s⁻¹	454000 M⁻¹ s⁻¹	0.562 nM	0.00019 s⁻¹	339000 M⁻¹ s⁻¹	10D3 (antibody, V domains shown, Rabbit-derived clone; LEM construct: VH + rabbit IgG CH1 + human IgG1 CH2-CH3) VH: QSLEESGGDLVQPGASLTLTCKAAGFDLNNYSMLWVRQAPGKGLEWIGCIYISGGTTYYASWAKGRFTISKTSSTTVTLQMTSLTAADTATYFCARDDGSTSYYLNLWGPGTLVTVSS VL: YDMTQTPASVSEPVGGTVTIKCQASEDIYRLLAWYQQKPGQPPKLLIYDASDLASGVPSRFKGSGSGTEYTLTISGLQCADAATYYCQQGYTIGNIDNSFGGGTEVVVK
0.221 nM	9.6e-05 s⁻¹	677000 M⁻¹ s⁻¹	0.227 nM	9.6e-05 s⁻¹	423000 M⁻¹ s⁻¹	8H2 (antibody, V domains shown, Rabbit-derived clone; LEM construct: VH + rabbit IgG CH1 + human IgG1 CH2-CH3) VH: QSLEESGGDLVQPGASLTLTCKASGFDLNNYAMLWVRQAPGKGLEWIGCIYISGGTTYFASWATGRFAISKTSSTTVTLQMTSLTAADTATYFCARDDGSTSYYLNLWGPGTLVTVSS VL: YDMTQTPASVSAAVGGTVTIKCQASEDIYSLLAWYQQKPGQPPKLLIYDASDLASGVPSRFKGSGSGTEYTLTISALECDDAATYYCQQAYTIGNIDNTFGGGTEVVVK
≤ 0.132 nM	~5.62e-05 s⁻¹	426000 M⁻¹ s⁻¹	0.173 nM	6.8e-05 s⁻¹	391000 M⁻¹ s⁻¹	10F12 (antibody, V domains shown, Rabbit-derived clone; LEM construct: VH + rabbit IgG CH1 + human IgG1 CH2-CH3) VH: QSLEESGGDLVQPGASLTLTCRASGFDLNNYSMLWVRQAPGKGLEWIGCIYISGGTTYFASWATGRFAISKTSSTTVTLQMTSLTAADTATYFCARDDGSTSYYLNLWGPGTLVTVSS VL: YDMTQTPASVSAAVGGTVTIKCQASEDIYSLLAWYQQKPGQPPKLLIFDASDLASGVPSRFKGSGSGTEYTLTISDLECDDAATYYCQQAYTIGNIDNAFGGGTEVVVK
1.27 nM	0.00092 s⁻¹	726000 M⁻¹ s⁻¹	0.959 nM	0.00051 s⁻¹	532000 M⁻¹ s⁻¹	62A10 (antibody, V domains shown, Rabbit-derived clone; LEM construct: VH + rabbit IgG CH1 + human IgG1 CH2-CH3) VH: QSLVESGGGLVQPEGSLTLTCKASGFDFNNYAVTWVRQAPGEGLEYIGFIGIRGHIYYANWAKGRFTISKTSSTTMTLQMTSLTVADTATYFCARGGLWTGNSYFDLWGPGTLVTVSS VL: YDMTQTPASVEVAVGGTVTINCQASESISRYLAWYQQKPGQSPKPLIYRASTLASGVPSRFQGSGSGTEYTLTISDLECADAATYYCQQGYGYSTVDNAFGGGTEVVVK
0.755 nM	0.00054 s⁻¹	721000 M⁻¹ s⁻¹	0.696 nM	0.00032 s⁻¹	459000 M⁻¹ s⁻¹	71F10 (antibody, V domains shown, Rabbit-derived clone; LEM construct: VH + rabbit IgG CH1 + human IgG1 CH2-CH3) VH: QSLEESGGGLVQPGASLTLTCTVSGFDFSSNAMTWVRQAPGEGLEYIGFIGIRGNIYYANWAKGRFTISKTSSTTVTLQMTSLTVADTATYFCARGGLWTGNSYFDLWGPGTLVTVSS VL: YDMTQTPASVSAAVGGTVTINCQASESISRYLAWYQQKPGQPPKPLIYRASTLASGVPSRFKGSGTGTDYTLTISDLECADAATYYCQQGYGYSTVGNAFGGGTEVVVK
0.892 nM	0.00059 s⁻¹	657000 M⁻¹ s⁻¹	0.871 nM	0.00038 s⁻¹	430000 M⁻¹ s⁻¹	70E2 (antibody, V domains shown, Rabbit-derived clone; LEM construct: VH + rabbit IgG CH1 + human IgG1 CH2-CH3) VH: QSLEESGGGLVKPGGTLTLTCTVSGFDFSNYAMTWVRQAPGKGLEYIGFIGIRGNIYYANWAKGRFTISKTSSTTVTLQMTSLTVADTATYFCARGGLWTGNSYFDLWGPGTLVTVSS VL: YDMTQTPASVEVPVGGTVTINCQASENINRYLAWYQQKPGQPPKPLIYRAATLASGVPSRFKGSGSGTEYTLSISDLECADAATYYCQQGYGYSTVGNAFGGGTEVVVK
4.63 nM	0.0017 s⁻¹	364000 M⁻¹ s⁻¹	3.85 nM	0.0011 s⁻¹	284000 M⁻¹ s⁻¹	73C2 (antibody, V domains shown, Rabbit-derived clone; LEM construct: VH + rabbit IgG CH1 + human IgG1 CH2-CH3) VH: QSLEESGGGLVKPGGTLTLTCTVSGFDFSNYAVTWVRQAPGEGLEYIGFVGIYGDFYYANWAKGRFTISKTSSTTVTLQMPSLTVADTATYFCARGGLWTGNSYFDLWGPGTLVTVSS VL: YDMTQTPASVEVAVGGTVTINCQASESINRYLAWYQQKRGQPPKPLIYRAATLASGVPSRFKGSGSGTEYTLTISDLECADAATYYCQQGYGYSTVGNAFGGGTEVVVK
